This note sets out measurements from paper PMC4158885 (The EMBO Journal, 2014).

For data set [1], the target named is ctPan2 PID (Pan3 interaction domain) as used for surface plasmon resonance and isothermal titration calorimetry (Chaetomium thermophilum). Description: ITC; ctPan3 PKC with ctPan2 PID; low protein concentrations, which limits the accuracy of the Kd.
Data set [2] shares this target. In words: SPR; ctPan3 PKC with ctPan2 PID; who was immobilised is not shown (Supplementary Fig S7A–C). In general terms: Surface plasmon resonance follows binding to a sensor surface in real time, without labels.
Data set [3] deals with T1, ctPan3 PKC (Chaetomium thermophilum, UniProt G0S0Y3 205-640).
T1 sequence: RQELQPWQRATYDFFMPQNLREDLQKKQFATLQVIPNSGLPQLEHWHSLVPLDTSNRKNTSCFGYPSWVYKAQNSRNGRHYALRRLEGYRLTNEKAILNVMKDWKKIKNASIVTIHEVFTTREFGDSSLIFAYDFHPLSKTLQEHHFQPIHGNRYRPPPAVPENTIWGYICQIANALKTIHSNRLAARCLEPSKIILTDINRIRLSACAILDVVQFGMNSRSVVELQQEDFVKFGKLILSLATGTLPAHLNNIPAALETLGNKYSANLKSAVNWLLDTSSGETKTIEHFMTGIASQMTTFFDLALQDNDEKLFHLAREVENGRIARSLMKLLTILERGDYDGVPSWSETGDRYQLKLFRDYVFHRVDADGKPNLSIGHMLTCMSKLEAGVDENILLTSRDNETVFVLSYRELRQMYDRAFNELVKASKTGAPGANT
Description: fluorescence polarization; 1 mM Mg2+; FP: 10 mM Tris pH 8.0, 50 mM NaCl, 1 mM MgCl2, 5 mM beta-mercaptoethanol, 20 nM RNA, temperature not stated; EMSA: deadenylation assay buffer (composition not in material), 0.1-3 uM complex, 40 ng RNA in 10 ul, 15 min RT; NMR: 150 uM protein, 150 uM RNA (HSQC). Conditions: protein: recombinant; tags: GST-TEV construct (pGEX-TEV); chain copies: 2; label: 5' Cy3. In general terms: Polarisation of emitted light reports the rotation of a fluorescent probe.

A further data set deals with ctPan2 E899A;ctPan3 PKC (Chaetomium thermophilum;Chaetomium …, UniProt G0SAK8;G0S0Y3 1-1170;205-640, E899A|). Described as above. Conditions: protein: recombinant;recombinant; tags: Strep-II, His;GST-TEV construct (pGEX-TEV); copies: 1;2; label: 5' Cy3.
Data set [4] deals with the molecule itself. Description: native MS; nanoESI-MS of the purified recombinant scPan2–Pan3 complex (5.5 mg/ml), buffer-exchanged into 200 mM ammonium acetate pH 8.0.
In data set [5] the target is T2, Saccharomyces cerevisiae Pan2 (scPan2), full length, of the recombinant scPan2–Pan3 complex (Saccharomyces cerevisiae, UniProt P53010 1-1115).
T2 construct: Pan2, Saccharomyces cerevisiae
T2 sequence (looked up): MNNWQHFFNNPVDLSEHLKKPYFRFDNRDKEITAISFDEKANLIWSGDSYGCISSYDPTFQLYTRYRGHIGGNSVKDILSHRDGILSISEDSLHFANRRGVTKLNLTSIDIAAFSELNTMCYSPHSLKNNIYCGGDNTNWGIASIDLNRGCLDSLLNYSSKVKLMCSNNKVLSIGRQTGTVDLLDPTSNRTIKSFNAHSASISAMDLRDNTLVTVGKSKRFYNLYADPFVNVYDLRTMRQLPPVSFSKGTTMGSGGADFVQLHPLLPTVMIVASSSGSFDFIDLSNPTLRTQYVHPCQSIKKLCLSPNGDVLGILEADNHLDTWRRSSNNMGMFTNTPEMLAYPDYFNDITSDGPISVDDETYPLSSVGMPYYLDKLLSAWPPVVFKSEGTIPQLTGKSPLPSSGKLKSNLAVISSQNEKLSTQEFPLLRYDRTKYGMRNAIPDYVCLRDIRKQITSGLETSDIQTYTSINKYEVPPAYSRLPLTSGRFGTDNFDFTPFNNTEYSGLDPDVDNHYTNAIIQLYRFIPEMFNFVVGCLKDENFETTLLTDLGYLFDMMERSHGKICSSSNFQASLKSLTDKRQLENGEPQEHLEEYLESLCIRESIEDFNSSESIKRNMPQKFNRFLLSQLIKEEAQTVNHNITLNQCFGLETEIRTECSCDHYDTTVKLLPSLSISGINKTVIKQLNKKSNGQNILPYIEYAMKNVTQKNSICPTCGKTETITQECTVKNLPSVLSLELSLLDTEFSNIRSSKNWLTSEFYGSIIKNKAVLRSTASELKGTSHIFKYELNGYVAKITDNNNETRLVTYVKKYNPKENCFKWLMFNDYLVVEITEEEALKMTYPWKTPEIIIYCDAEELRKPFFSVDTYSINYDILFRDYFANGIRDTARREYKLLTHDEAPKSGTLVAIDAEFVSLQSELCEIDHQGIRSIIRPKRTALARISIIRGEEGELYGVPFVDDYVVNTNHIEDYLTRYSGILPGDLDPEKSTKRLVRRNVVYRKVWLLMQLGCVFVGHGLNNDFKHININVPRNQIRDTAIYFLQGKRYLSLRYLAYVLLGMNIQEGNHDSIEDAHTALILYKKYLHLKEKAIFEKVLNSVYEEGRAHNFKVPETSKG
The data set is described as above. Conditions: both partners purified.

Data set [6] has as its target T3, scPan3 zinc finger (Saccharomyces cerevisiae, UniProt P36102 1-41).
T3 chain: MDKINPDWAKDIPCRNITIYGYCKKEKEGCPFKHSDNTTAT
In words: NMR chemical shift perturbation; Zn2+; negligible changes; FP: 10 mM Tris pH 8.0, 50 mM NaCl, 1 mM MgCl2, 5 mM beta-mercaptoethanol, 20 nM RNA, temperature not stated; EMSA: deadenylation assay buffer (composition not in material), 0.1-3 uM complex, 40 ng RNA in 10 ul, 15 min RT; NMR: 150 uM protein, 150 uM RNA (HSQC). The note with it: protein: recombinant; tags: lipoyl domain/His fusion removed by TEV. On the technique in general: A gel shift assay detects complexes by their altered migration in electrophoresis.

The target in data set [7] is T1, ctPan3 PKC. Description: fluorescence polarization; 1 mM Mg2+; possible G-quadruplex complicates interpretation; FP: 10 mM Tris pH 8.0, 50 mM NaCl, 1 mM MgCl2, 5 mM beta-mercaptoethanol, 20 nM RNA, temperature not stated; EMSA: deadenylation assay buffer (composition not in material), 0.1-3 uM complex, 40 ng RNA in 10 ul, 15 min RT; NMR: 150 uM protein, 150 uM RNA (HSQC). The note with it: protein: recombinant, tags: GST-TEV construct (pGEX-TEV), chain copies: 2, label: 5' Cy3.

Data set [8] concerns the target T3, scPan3 zinc finger. Description: NMR titration; Zn2+; apparent Kd per residue: 62 ± 4, 93 ± 11, 100 ± 13 (peaks of Trp8, Ala9, Asn16); FP: 10 mM Tris pH 8.0, 50 mM NaCl, 1 mM MgCl2, 5 mM beta-mercaptoethanol, 20 nM RNA, temperature not stated; EMSA: deadenylation assay buffer (composition not in material), 0.1-3 uM complex, 40 ng RNA in 10 ul, 15 min RT; NMR: 150 uM protein, 150 uM RNA (HSQC). Conditions: protein: recombinant; tags: lipoyl domain/His fusion removed by TEV.

As to “ctPan3 pseudokinase/C-terminal domain (PKC, residues 205–640), purified from E. coli (from UniProt G0S0Y3 205-640) (domain or fragment)”, in [1], the Kd stood at 50 nM, the dH is -30 kcal/mol and the stoichiometry N (Pan2 chain per Pan3 dimer) was 1. Also, the Kd in [2] turned out to be 10 nM.
As to UUUUUUUUUUUUUUU (ssRNA) [Cy3-U15 RNA], the Kd with ctPan3 PKC [3] stood at 1600 ± 600 nM.
For the molecule AAAAAAAAAAAAAAAAAAAAAAAAA (ssRNA) [Cy3-A25 RNA], the Kd was determined as 270 ± 20 nM with ctPan2 E899A;ctPan3 PKC and 620 ± 60 nM in the data set with ctPan3 PKC [3].

B1: Saccharomyces cerevisiae Pan3 (scPan3), full length, of the recombinant scPan2–Pan3 complex (natural protein, UniProt P36102 1-679, looked up)
chain: MDKINPDWAKDIPCRNITIYGYCKKEKEGCPFKHSDNTTATTINDVPPPIDVGEATTPTMTSVPKFNAKVSASFTPMTVGSDSLTTVTNTTSAATNATGNIAMAATSATASTVNPMINPIVNSSLVNNNNNNSNISISIPTTASSSNYDPFNAPIFTPSSTSSIHTNANAHSFPFPSIANSGGININATDDNSNNMSMANNVPPPMQPPPIESSNLKYPRIYPPPHSLLQYHLYAPEQPSSLKSLLKPNERSADQLFIPNNIREDLTKKNLSILQVFPSSGKVIPSIVQDYFNLVPLNFNNNDFLNKTTLFKVFSNYDGKAYVLKRLPNIDKSMNPNKISKIYQIWSKINCTNLIKFRDIFQTTKFGDLSICLVFDYYPNSLSLYDYHFVNFPKFPITNNYLWIYLVQLTNVINSIHSQNLSIGNTLNWRKVLITGDPGRIKLSHCNFMDLLFNDDTDTVVSSGGSTIEGQQQLDYKYLGELLFNLSINIENSNNNTAPKEYRLEEITPQSIDDMRQIDDKFKDVLKYLISDNGDSKKSIHDLTSHFYDKMFMVLESSQTYTEYMESVLSRELENGRLFRLVNKLNCIFGRIESRIDINWSESGTKFPIILFYDYVFHQVDSNGKPIMDLTHVLRCLNKLDAGIQEKLMLVTPDELNCIIISYKELKDLIESTFRSITQ
notes: Pan3, Saccharomyces cerevisiae; Two copies stand in the scPan2–Pan3 heterotrimer by nanoESI-MS
One may read the stoichiometry N as a count of units in the complex or per binding partner. On to B1, for which the binding result in data set [4] is given as “binds”. Further, in [5], the “stoichiometry N” value came to 2 scPan3 per scPan2.
Consider CCCCCCCCCCCCCCC (ssRNA) [Cy3-C15 RNA], for which the Kd with ctPan3 PKC [3] came out at 2200 ± 1700 nM.
As to CCCCCCCCCCCCCCC (ssRNA) [C15 RNA (NMR)], the binding result with scPan3 zinc finger [6] is “no binding”.
As for AAAAAAAAAAAAAAA (ssRNA) [Cy3-A15 RNA], in the data set with ctPan3 PKC [3], the Kd is 2100 ± 1400 nM.
Consider GGGGGGGGGGGGGGG (ssRNA) [Cy3-G15 RNA], for which, in the data set with ctPan3 PKC [7], the Kd was 550 ± 50 nM.
Take AAAAAAAAAAAAAAA (ssRNA) [polyA15 RNA (NMR)]: the Kd with scPan3 zinc finger [8] was approximately 77.5 µM.
Turning to UUUUUUUUUUUUUUU (ssRNA) [U15 RNA (NMR)], the binding result with scPan3 zinc finger [6] was “no binding”.
